Test results taken from patent US10385103B2, “Cell-permeable (ICP)-SOCS3 recombinant protein and uses thereof” (CELLIVERY THERAPEUTICS, INC., priority 2014, dated 2019).
Entries after “also recorded” stand apart in the source; their conditions may differ.

Tests used:
NIH3T3 cells = test: Intracellular delivery and localization of FITC-labeled SOCS3 recombinant proteins (confocal microscopy); type: cell-based, mouse; conditions: 10 μM FITC-labeled SOCS3 protein, 1 hour, 37° C.
Experimental: To examine cell-permeability of SOCS3 recombinant protein, SOCS3 recombinant proteins were conjugated to 5/6-fluorescein isothiocyanate (FITC). RAW 264.7 (KCLB, Seoul, South Korea) (FIG. 20) or NIH3T3 cells (KCLB, Seoul, South Korea) (FIG. 21) were treated with 10 μM FITC-labeled SOCS3 recombinant proteins and cultivated for 1 hr at 37° C.
After cultivation, the cells were washed three times with ice-cold PBS (Phosphate-buffered saline, Hyclone, USA) and treated with proteinase K (10 μg/mL, SIGMA, USA) to remove surface-bound proteins, and internalized proteins were measured by flow cytometry (FlowJo cytometric analysis software, Guava, Millipore, Darmstadt, Germany). Untreated cells (gray) and equimolar concentration of unconjugated FITC (FITC only, green)-treated cells were served as control (FIG. 20). Each of NIH3T3 cells was incubated for 1 hour at 37° C. with 10 μM FITC-labeled SOCS3 protein. For nuclear staining, a mixture of […] Mounting Medium (Vector laboratories, Burlingame, Calif.) and DAPI (4′,6-diamidino-2-phenylindole) was added to NIH3T3 cells, and visualized using a confocal laser microscope (LSM700, Zeiss, Germany) (FIG. 21).

[1] = Tissue-permeability / systemic delivery of FITC-labeled SOCS3 proteins after intraperitoneal injection; type: in vivo, ICR mice
Experimental: To further investigate in vivo delivery of SOCS3 recombinant proteins, ICR mice (Doo-Yeol Biotech Co. Ltd., Seoul, Korea) were intraperitoneal (IP) injected with 600 μg/head of 10 μM FITC (Fluorescein isothiocyanate, SIGMA, USA)-labeled SOCS3 proteins and sacrificed after 2 hrs. From the mice, the liver, kidney, spleen, lung, heart, and brain were removed and washed with PBS, and then placed on a dry ice, and embedded with an O.C.T. compound (Sakura). After cryosectioning at 20 μm, tissue distributions of fluorescence-labeled-SOCS3 proteins in different organs was analyzed by fluorescence microscopy (Carl Zeiss, Gottingen, Germany)(FIG. 22).
The liver tissue permeability was analyzed by the method described in Example 7-2.

RAW 264.7 cells = test: Cell-to-cell protein transfer (flow cytometry); type: cell-based
Experimental: For this, RAW 264.7 cells were treated with 5 μM of FITC-labeled HM165S3B, HTS3B for 2 hour and washed with PBS two times. Thereafter, they were seeded on PANC-1 cell, incubated for 2 hours and treated with 20 ng/ml of IFN-γ for 15 minutes, followed by Western blotting in the same manner as in Example 8-1. And Cell-to-cell protein transfer was assessed by flow cytometry.
For this, RAW 264.7 cells were treated with 10 uM of FITC-labeled iCP-SOCS3 (HM165S3B) protein for 1 hour. Thereafter, these cells were co-cultured with PerCP-Cy5.5-CD 14-stained RAW 264.7 cells for 2 hours. Cell-to-cell protein transfer was assessed by flow cytometry, scoring for CD14/FITC double-positive cells.

[2] = system: HCCs (Hep3B, HepG2, Huh7 and SK-HEP-1); test: Inhibition of cell cycle progression (PI staining, flow cytometry); type: cell-based, human; conditions: 10 uM, 8 hrs
Experimental: To further determine the effect of iCP-SOCS3 on the tumorigenicity of hepatocellular carcinoma cells, we subsequently investigated whether iCP-SOCS3 regulates cell cycle progression in HCCs (Hep3B, HepG2, Huh7 and SK-HEP-1).
HCCs and normal cells were treated with 10 uM protein (Non-CP-SOCS3 (HS3B) and iCP-SOSC3 (HM165S3B)) for 8 hrs. After the treatment, cells were washed twice with cold PBS and re-suspended in 1 ml cold PBS, fixed in cold 70% ethanol, washed with cold PBS twice and re-suspended in PI master mix (PI 10 ug/ml (SIGMA, USA), 50 ug/ml RNase A (Invitrogen, USA) in staining buffer) at a final cell density of 2×10^5 cell/ml. The cell mixtures were incubated 30 min in the dark at 4° C. Flow cytometric analysis was immediately performed using a guava easyCyte™ 8 Instrument (Merck Millipore, Darmstadt, Germany).

[3] = system: tumor tissues (Hep3B CDX, HepG2 CDX); test: Biomarker expression in xenograft tumor tissues (RT-PCR, Western blotting, IHC); type: in vivo, Balb/c nu/nu mice
Experimental: Tumor tissues were finely minced using a homogenizer according to the manufacturer's protocol of Hybrid-R (geneall, Korea), and then mRNA was isolated therefrom. 1 ug of mRNA thus separated was used to synthesize cDNA using an Accupower RT Premix (Bioneer, Korea). PCR was performed using 2 ul of cDNA and the primers of Table 45. PCR was performed using an Accupower PCR Premix (Bioneer, Korea) for 30 cycles consisting of denaturing (95° C.), annealing (60° C.), and extending (72° C.) for 45 seconds each.
Immunohistochemistry (IHC) Tissue samples were fixed in 4% Paraformaldehyde (Duksan, South Korea) for 3 days, dehydrated, cleared with xylene and embedded in Paraplast. Sections (6 μm thick) of tumor were placed onto poly-L-lysine coated slides. To block endogenous peroxidase activity, sections were incubated for 15 min with 3% H2O2 in methanol. After washing three times with PBS, slides were incubated for 30 min with blocking solution (5% fetal bovine serum in PBS). Mouse anti-Bax antibody (sc-7480, Santa Cruz Biotechnology, SantaCruz, Calif., USA) and rabbit anti-VEGF (ab46154, Abcam, Cambridge, UK) were diluted 1:1000 (to protein concentration 0.1 μg/ml) in blocking solution, applied to sections, and incubated at 4° C. for 24 hrs. After washing three times with PBS, sections were incubated with biotinylated mouse and rabbit IgG (Vector Laboratories, Burlingame, Calif., USA) at a 1:1000 dilution for 1 hr at room temperature, then incubated with avidin-biotinylated peroxidase complex using a Vectorstain ABC Kit (Vector Laboratories, Burlingame, Calif., USA) for 30 min at room temperature. After the slides are reacted with oxidized 3, 3-diaminobenzidine as a chromogen, they were counterstained with Harris hematoxylin (Sigma-Aldrich, USA). Permanently mounted slides were observed and photographed using a microscope equipped with a digital imaging system (ECLIPSE Ti, Nikon, Japan).
mRNA levels were analyzed using the tumor tissues removed at 2 weeks (Hep3B CDX, day 35) or 3 weeks (HepG2 CDX, day 42) after termination of drug administration to analyze changes in expressions of major biomarker genes by iCP-SOCS3.
Further, tumors removed at 2 weeks (Hep3B CDX, day 35) or 3 weeks (HepG2 CDX, day 42) after termination of drug administration were used to perform Western blotting and IHC, and increase or decrease in the expressions of cancer activity regulating factors by iCP-SOCS3 was observed.

[4] = day 35 (Hep3B CDX) or day 42 (HepG2 CDX)

B1: HM165S3B: His-tagged recombinant protein of aMTD165, human SOCS3 and solubilization domain B; prototype improved cell-permeable SOCS3 (protein)
chain: MGSSHHHHHHSSGLVPRGSHMALAVPVALAIVPVTHSKFPAAGMETSRPLDTSLRLKTFSSKSEYQLVVNAVRKLQESGFYWSAVTGGEANLLLSAEPAGTFLIRDSSDQRHFFTLSVKTQSGTKNLRIQCEGGSFSLQSDPRSTQPVPRFDCVLKLVHHYMETPPPGAPSFPSPPTEPSSEVPEQPSAQPLPGSPPRRAYYIYSGGEKIPLVLSRPLSSNVATLQHLCRKTVNGHLDSYEKVTQLPGPIREFLDQYDAPLGSMAEQSDKDVKYYTLEEIQKHKDSKSTWVILHHKVYDLTKFLEEHPGGEEVLGEQAGGDATENFEDVGHSTDARELSKTYIIGELHPDDRSKIAKPSETL
modifications: Amino acid sequence of HM165S3B
NIH3T3 cells
  intracellular delivery and localization: localized to various extents in cytoplasm; also recorded: displayed more uniform cellular distribution
[1]; IP 600 μg/head FITC-labeled protein, sacrificed after 2 hrs, liver, kidney, spleen, lung, heart, brain
  tissue distribution / systemic delivery: distributed to a variety of tissues (liver, kidney, spleen, lung, heart and, to a lesser extent, brain); also recorded: showed the highest systemic delivery of SOCS3 protein to the tissues; also recorded: exhibited superior cell-permeability
[1]; intraperitoneal injection
  systemic delivery to liver: enhanced the systemic delivery to liver
RAW 264.7 cells; 10 uM FITC-labeled protein 1 hour, co-culture with CD14-stained RAW 264.7 cells 2 hours
  cell-to-cell protein transfer (CD14/FITC double-positive cells): Efficient cell-to-cell transfer
RAW 264.7 cells; RAW 264.7 treated with 5 μM FITC-labeled protein 2 hour, seeded on PANC-1 cell 2 hours
  cell-to-cell protein transfer: efficient cell-to-cell transfer
[2]
  cell cycle progression in HCCs: efficiently inhibited cell cycle progression
[3]; Western blotting and IHC
  expression of Bax in tumor tissues: increased
  expression of Bcl-2 in tumor tissues: decreased
  expression of VEGF in tumor tissues: remarkably decreased
  expression of p21 in tumor tissues: increased
[3]; [4]
  expression of GOLPH2 in tumor tissues: remarkably reduced
  mRNA expressions of Bax, cyclinD1, cyclinE, PCNA, VEGF, FAK-related genes in tumor tissues: significantly regulated
